Laboratory results: US20150218230

How the values were obtained:
Assay in all cases: cell_activity
[1] = system: TALE-nuclease collection F NG-HD-NI (synthetic)
[2] = system: TALE-nuclease collection F NG-NG-HD (synthetic)
[3] = system: TALE-nuclease collection F NG-HD-NN (synthetic)
[4] = system: TALE-nuclease collection F NG-NN-NG (synthetic)
[5] = system: TALE-nuclease collection F NG-NN-HD (synthetic); conditions: GFP disruption, mammalian cells, rank 1
[6] = system: TALE-nuclease collection F HD-NG-HD (synthetic)
[7] = system: TALE-nuclease collection F NI-NG-HD (synthetic)
[8] = system: TALE-nuclease collection F NN-NI-NN (synthetic)
[9] = system: TALE-nuclease collection F NG-NI-NG (synthetic)
[10] = system: TALE-nuclease collection F NG-NG-NI (synthetic)
[11] = system: TALE-nuclease collection F NI-NN-NN (synthetic)
[12] = system: TALE-nuclease collection F NG-NN-NN (synthetic)
[13] = system: TALE-nuclease collection F NG-NI-NN (synthetic)
[14] = system: TALE-nuclease collection F NG-NG-NG (synthetic)
[15] = system: TALE-nuclease collection F NG-NG-NN (synthetic)
[16] = system: TALE-nuclease collection F NG-NI-NI (synthetic)
[17] = system: TALE-nuclease collection F HD-NN-NN (synthetic)
[18] = system: TALE-nuclease collection F NN-NG-NI (synthetic)
[19] = system: TALE-nuclease collection F NG-NI-HD (synthetic)
[20] = system: TALE-nuclease collection F NI-NN-NG (synthetic)
[21] = system: TALE-nuclease collection F NN-NI-HD (synthetic)
[22] = system: TALE-nuclease collection F NG-HD-HD (synthetic)
[23] = system: TALE-nuclease collection F NG-HD-NG (synthetic)
[24] = system: TALE-nuclease collection F NN-NI-NG (synthetic)

## integrated GFP locus TALE-nuclease target
[1]
  activity (% GFP negative cells): 4.5
[2]
  activity (% GFP negative cells): 21
[3]
  activity (% GFP negative cells): 6.5
[4]
  activity (% GFP negative cells): 22.2
[5]
  activity (% GFP negative cells): 28.8
[6]
  activity (% GFP negative cells): 3.9
[7]
  activity (% GFP negative cells): 3.6
[8]
  activity (% GFP negative cells): 3.2
[9]
  activity (% GFP negative cells): 18.3
[10]
  activity (% GFP negative cells): 9.4
[11]
  activity (% GFP negative cells): 6.2
[12]
  activity (% GFP negative cells): 19.8
[13]
  activity (% GFP negative cells): 17.7
[14]
  activity (% GFP negative cells): 19.5
[15]
  activity (% GFP negative cells): 18.6
[16]
  activity (% GFP negative cells): 12.6
[17]
  activity (% GFP negative cells): 4.4
[18]
  activity (% GFP negative cells): 7.6
[19]
  activity (% GFP negative cells): 22.8
[20]
  activity (% GFP negative cells): 5.9
[21]
  activity (% GFP negative cells): 5.3
[22]
  activity (% GFP negative cells): 18.9
[23]
  activity (% GFP negative cells): 14.7
[24]
  activity (% GFP negative cells): 5.1
